One molecule from publication PMC4820614 can be followed below.

In this test the target is T1, full-length rat TRPV2 (rat), Q9WUD2.
T1 chain: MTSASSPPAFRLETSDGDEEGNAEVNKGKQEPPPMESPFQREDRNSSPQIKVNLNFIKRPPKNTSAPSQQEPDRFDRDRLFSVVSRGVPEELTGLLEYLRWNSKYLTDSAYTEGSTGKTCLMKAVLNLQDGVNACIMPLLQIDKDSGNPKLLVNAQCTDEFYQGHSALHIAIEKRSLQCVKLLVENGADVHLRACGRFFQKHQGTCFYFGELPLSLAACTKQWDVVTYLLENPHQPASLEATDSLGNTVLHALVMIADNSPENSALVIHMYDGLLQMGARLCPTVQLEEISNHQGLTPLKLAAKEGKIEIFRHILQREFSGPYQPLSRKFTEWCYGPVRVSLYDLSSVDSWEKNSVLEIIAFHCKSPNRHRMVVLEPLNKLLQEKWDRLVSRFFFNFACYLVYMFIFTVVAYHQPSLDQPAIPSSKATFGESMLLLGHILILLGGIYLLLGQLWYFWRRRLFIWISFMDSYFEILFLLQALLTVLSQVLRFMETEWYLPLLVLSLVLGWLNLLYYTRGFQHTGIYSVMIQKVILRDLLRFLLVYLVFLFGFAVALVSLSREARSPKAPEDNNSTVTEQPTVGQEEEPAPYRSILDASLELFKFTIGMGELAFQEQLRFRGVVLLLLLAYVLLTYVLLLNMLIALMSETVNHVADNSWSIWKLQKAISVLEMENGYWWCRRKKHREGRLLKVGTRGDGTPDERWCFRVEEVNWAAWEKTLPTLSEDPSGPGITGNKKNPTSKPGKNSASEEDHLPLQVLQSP
Briefly: cryo-EM structure; single particle cryo-EM of purified rat TRPV2 without ligand, 2.5 mg/ml, in decyl MNG, 150 mM NaCl, 20 mM HEPES pH 8.0, 1.0 mM DTT; no added lipids. To be noted: remark: other sources report otherwise.

B1: full-length rat TRPV2, Q9WUD2 1-761 (natural protein)
chain: MTSASSPPAFRLETSDGDEEGNAEVNKGKQEPPPMESPFQREDRNSSPQIKVNLNFIKRPPKNTSAPSQQEPDRFDRDRLFSVVSRGVPEELTGLLEYLRWNSKYLTDSAYTEGSTGKTCLMKAVLNLQDGVNACIMPLLQIDKDSGNPKLLVNAQCTDEFYQGHSALHIAIEKRSLQCVKLLVENGADVHLRACGRFFQKHQGTCFYFGELPLSLAACTKQWDVVTYLLENPHQPASLEATDSLGNTVLHALVMIADNSPENSALVIHMYDGLLQMGARLCPTVQLEEISNHQGLTPLKLAAKEGKIEIFRHILQREFSGPYQPLSRKFTEWCYGPVRVSLYDLSSVDSWEKNSVLEIIAFHCKSPNRHRMVVLEPLNKLLQEKWDRLVSRFFFNFACYLVYMFIFTVVAYHQPSLDQPAIPSSKATFGESMLLLGHILILLGGIYLLLGQLWYFWRRRLFIWISFMDSYFEILFLLQALLTVLSQVLRFMETEWYLPLLVLSLVLGWLNLLYYTRGFQHTGIYSVMIQKVILRDLLRFLLVYLVFLFGFAVALVSLSREARSPKAPEDNNSTVTEQPTVGQEEEPAPYRSILDASLELFKFTIGMGELAFQEQLRFRGVVLLLLLAYVLLTYVLLLNMLIALMSETVNHVADNSWSIWKLQKAISVLEMENGYWWCRRKKHREGRLLKVGTRGDGTPDERWCFRVEEVNWAAWEKTLPTLSEDPSGPGITGNKKNPTSKPGKNSASEEDHLPLQVLQSP
On to B1, for which the stoichiometry N came to 4.
